Changes are numbered by the printed parent chain.
B1: Luc49-7C6: mutant luciferase, SEQ ID NO:14 (protein)
chain: MADKNILYGPEPFYPLADGTAGEQMFYALSRYADISGCIALTNAHTKENVLYEEFLKLSCRLAESFKKYGLKQNDTIAVCSENGLQFFLPIIASLYLGIIAAPVSDKYIERELIHSLGIVKPRIIFCSKNTFQKVLNVKSKLKYVETIIILDLNEDLGGYQCLNNFISQNSDINLDVKKFKPYSFNRDDQVALVMFSSGTTGVSKGVMLTHKNIVARFSLAKDPTFGNAINPTTAILTVIPFHHGFGMMTTLGYFTCGFRVVLMHTFEEKLFLQSLQDYKVESTLLVPTLMAFLAKSALVEKYDLSHLKEIASGGAPLSKEIGEMVKKRFKLNFVRQGYGLTETTSAVLITPNNDVRPGSTGKIVPFHAVKVVDPTTGKILGPNEPGELYFKGDMIMKGYYNNEEATKAIINKDGWLRSGDIAYYDNDGHFYIVDRLKSLIKYKGYQVAPAEIEGILLQHPYIVDAGVTGIPDEAAGELPAAGVVVQTGKYLNEQIVQNFVSSQVSTAKWLRGGVKFLDEIPKGSTGKIDRKVLRQMFEKHTNG
modifications: Mutant luciferase
B2: Luc78-0B10: mutant luciferase, SEQ ID NO:19 (protein)
chain: MADKNILYGPEPFYPLADGTAGEQMFDALSRYADISGCIALTNAHTKENVLYEEFLKLSCRLAESFKKYGLKQNDTIAVCSENGLQFFLPVIASLYLGIIAAPVSDKYIERELIHSLGIVKPRIIFCSKNTFQKVLNVKSKLKSVETIIILDLNEDLGGYQCLNNFISQNSDSNLDVKKFKPYSFNRDDQVALVMFSSGTTGVPKGVMLTHKNIVARFSLAKDPTFGNAINPTTAILTVIPFHHGFGMMTTLGYFTCGFRVVLMHTFEEKLFLQSLQDYKVESTLLVPTLMAFLAKSALVEKYDLSHLKEIASGGAPLSKEIGEMVKKRFKLNFVRQGYGLTETTSAVLITPKGDARPGSTGKIVPFHAVKVVDPTTGKILGPNEPGELYFKGAMIMKGYYNNEEATKAIIDNDGWLRSGDIAYYDNDGHFYIVDRLKSLIKYKGYQVAPAEIEGILLQHPYIVDAGVTGIPDEAAGELPAAGVVVQTGKYLNEQIVQDFVSSQVSTAKWLRGGVKFLDEIPKGSTGKIDRKVLRQMFEKHTNG
modifications: Mutant luciferase
B3: 49-7a5: mutant luciferase, SEQ ID NO:17 (protein)
chain: B1 chain with A2E, L220I, P386T
modifications: Mutant luciferase

How the values were obtained:
[1] = Robotic quantitative screen of E. coli lysates: enzyme stability (tau) at elevated temperature; format: physicochemical; conditions: relative value
Method: Two white assay plates (Labsystems #9502887) are obtained from the plate feeder and placed in the pipetter. The incubation plate from the shaker is placed in the pipetter, and the lid removed and placed on the nearby locator. Two daughter plates are made using the pipetting procedure (see “Create Pair of Daughter Plates from Incubation Plate”). Afterwards, the lid is replaced on the parent plate, and the plate is placed in a high temperature incubator. [ranging from 31° C. to about 65° C. depending on the clone.]
To begin the second set of measurements, the plate from the high temperature incubator is placed in the shaker to mix.
In the final set of measurements, the plate from the high temperature incubator is again placed in the shaker to mix.
(§1) The following criteria were used for screening purposes. The temperature chosen for the enzyme stability parameter was such that the parent enzyme would decay 100 to 1000 fold over 10 hours (see Table 1). Criteria 1 is achieved manually; data for criteria 2-6 is generated by robotic analysis. For all criteria, the maximum value as described is selected. • 1. In vivo screen. The brightest clones are selected at a given temperature. • 2. Expression/specific activity. The value for normalized luminescence is calculated as the ratio of luminescence to optical density. The value is reported as the ratio with the reference value. • 3. Enzyme stability. Measurements of normalized luminescence of the incubated samples (3 taken over about 15 hours) are fitted to In(L)=In(L0)−(t/τ), where L is normalized luminescence and t is time. τ is a measure of the enzyme stability. The value is reported as the ratio with the reference value, and the correlation coefficients are calculated. • 4. Substrate binding. Measurements of normalized luminescence with 1X and 0.02X are taken at the initial reading set, and 1X and 0.06X are taken at the 5 hour set. The ratio of the 0.02X:1X and 0.06X:1X gives the relative luminescence at 0.02X and 0.06X concentrations. These values, along with the relative luminescence at 1X (i.e., 1), are fitted to a Lineweaver-Burk plot to yield the Km:app,total for the substrates ATP, luciferin, and CoA. The values are reported as the inverse ratio with the reference value, and the correlation coefficients are calculated. • 5. Signal stability. The luminescence of the initial IX luminescent reactions are re-measured 3 additional times over about 15 hours. These values are fitted to In(L)=In(L0)−(t/τ) and the integral over t (15 hours) is calculated. Signal stability is then calculated as S=(1−int(L)/L0t)^2. The values are reported as the inverse ratio with the reference value, and the correlation coefficients are calculated. • 6. Composite fitness. The values of criteria 2 through 5 are combined into a single composite value of fitness (or commercial utility). This value is based on a judgment of the relative importance of the other criteria. This judgment is given below:
Calculate enzyme stability (τ): For each sample, use linear regression to fit In(L1x)=In(L0)−(t/τ) using the three luminescence measurements with 1X substrate concentrations (Plates 1, 5, 8). Also calculate the regression coefficient.
Calculate the reference-normalized values: For the criteria parameter of each sample, a reference-normalized value is determined by calculating the ratio or inverse ratio with the respective reference value. The reference-normalized values are Li/Lir, τ/τr, Kmr/Km:app,total, and Sr/S, where reference values are calculated from the equations of the appropriate reference surface.
“Enzyme stability” was determined by the rate of activity loss from cell lysates over 10 hours. In successive rounds of evolution the incubation temperature of the lysates was increased.
Robotic Automation: Robotic automation was used in the quantitative screens to accurately perform the large number of required quantitative assays on the cultured cells. […]

[2] = Michaelis-Menten constant for luciferin of purified mutants; format: biochemical; conditions: purified enzyme
Description: (§2) Substrate binding was screened by measuring an apparent composite Km (see Example 2) for luciferin and ATP. […] The Km for luciferin rose while the Km for ATP declined (Table 3). The reason for this change is unknown, although it can be speculated that more efficient release of oxyluciferin or luciferin inhibitors could lead to more rapid enzyme turnover.
(§3) Protein purification: Four mutants that are described herein (Luc[T249M], Luc49-7C6, Luc78-0B10, and Luc90-1B5) were purified using a previously published procedure (Hastings et al., 1996).

[3] = Michaelis-Menten constant for ATP of purified mutants; format: biochemical; conditions: purified enzyme
Description: as §2, §3

[4] = Robotic quantitative screen of E. coli lysates: signal stability (S), sustained enzymatic turnover; format: biochemical; conditions: inverse ratio with reference
Method: (§4) One daughter plate is placed in the luminometer and the 1X assay method is used. After the assay, the plate is placed in the ambient incubator, and the second daughter plate is placed in the luminometer. For the second plate, the 0.02X assay method is used. This plate is discarded, and the first plate is returned from the incubator to the luminometer. The repeat assay method is used (i.e., no reagent is injected). Afterwards, the plate is again returned to the ambient incubator.
The plate in the ambient incubator is returned to the luminometer and the repeat assay method is again used. The plate is returned afterwards to the ambient incubator.
The plate in the ambient incubator is returned to the luminometer and the repeat assay method is again used. The plate is discarded afterwards.
as §1
Calculate signal stability (S): For each sample, use linear regression to fit In(L)=In(L0)[…] using the four luminescence measurements of the initial microplate with 1X substrate concentrations (Plates 1, 3, 4, and 7). Also calculate the regression coefficient. From the calculated values of T and L0, calculate the integral of luminescence by int(L)=τL0(1−exp(−tf/τ)), where tf is the average time of the last measurement (e.g., 15 hours). The signal stability is calculated as S=(1−int(L)/Litf)^2, where Li is the initial measurement of normalized luminescence with 1× substrate concentration (Plate 1).
[Note: To correct for evaporation, an equation S=(1+K−int(L)/Litf)^2, may be used where 1/K=2(relative change of liquid volume at tf).]
Calculate the reference-normalized values: For the criteria parameter of each sample, a reference-normalized value is determined by calculating the ratio or inverse ratio with the respective reference value. […]

[5] = Robotic quantitative screen of E. coli lysates: luminescence activity (Li), expression/specific activity; format: biochemical; conditions: relative value
Method: A plate containing cells is retrieved from the carousel and placed on the shaker for 3-5 minutes to fully mix the cells. The cells tend to settle from solution upon standing.
To measure Optical Density (O.D.), the plate is moved from the shaker to the locator near the luminometer; the lid is removed and the plate placed into the luminometer. The O.D. is measured using a 620 nm filter.
To prepare a cell lysate, the plate of cells is first retrieved from the refrigerator and mixed on the shaker to resuspend the cells. A new plate from the carousel without a lid is placed in the reagent dispenser and 20 μl of Buffer A is added to each well. This is placed in the pipetting station.
The plate is then moved to the reagent dispenser to add 175 μl of Buffer B, and then mixed on the shaker for about 15 minutes or more. The combination of the freeze/thaw and Buffer B will cause the cells to lyse.
as §4
1X Assay reagent: 5 μM Luciferin; 175 μM ATP; 20 mM Tricine, pH 8.0; 0.1 mM EDTA
as §1
Normalize luminescence data: For each measurement of luminescence in the eight daughter plates, the normalized luminescence is calculated by dividing the relative light units by the optical density of the original plate. […]

[6] = Thermostability (half-life, retained activity) of luciferases incubated in aqueous solution at different temperatures; format: physicochemical; conditions: for thermostability compared with parent enzyme: 4° C., times of less than 15 days (FIG. 49); for half-life: 22° C. (FIGS. 9, 10); for Thermostability Of Luciferase Activity (Half-Life In Hours): purified enzyme
Description: As defined herein, a “thermostable” enzyme, e.g., a luciferase, or an enzyme which has “thermostability”, is an enzyme which under certain conditions, e.g., at certain temperature, in aqueous solution and/or for certain periods of time, has an increased retention of activity relative to a reference enzyme. For example, for a thermostable luciferase, a reference luciferase may be native wild-type luciferase or recombinant wild-type luciferase. Preferably, for beetle luciferases, the activity is luminescence under conditions of saturation with luciferin and ATP. One measure of thermostability of an enzyme is the half-life of the enzyme in an aqueous solution (the time over which 50% of the activity is lost) at a stated temperature.
as §3
[…] Enzyme stability was determined from diluted proteins incubated at different temperatures, and aliquots were removed at different time points. A linear regression of the natural log of the luminescence and time was calculated. Half-life was calculated as the 1n(0.5)/slope of the regression.

[7] = Control is Luc46-2H3 at 54° C. (=1)
[8] = Room Temperature (about 25° C.)
[9] = Control is Luc71-5D4 at 60° C. (=1)

Molecule | Enzyme stability (tau) [1, 7] | Km [2] | Km [3] | Signal stability (S) [4, 7] | Luminescence (Li) [5, 7] | thermostability compared with parent enzyme [6] | half-life [6] | Thermostability Of Luciferase Activity (Half-Life In Hours) ([6]; 37° C.) | half-life calculated from regression of log luminescence ([6]; 50° C. (FIG. 7)) | Thermostability Of Luciferase Activity (Half-Life In Hours) ([6]; 50° C.) | half-life calculated from regression of log luminescence ([6]; 60° C. (FIGS. 6, 8)) | Thermostability Of Luciferase Activity (Half-Life In Hours) ([6]; 60° C.) | Thermostability Of Luciferase Activity (Half-Life In Hours) [6, 8] | Enzyme stability (tau) [1, 9] | Signal stability (S) [4, 9] | Luminescence (Li) [5, 9] | half life calculated from regression of log luminescence ([6]; FIG. 5, temperature not given)
B1 | 1.9 | 990 nM | 14 µM | 1.01 | 1.12 | not distinguishable from the parent enzyme | 64 days | 68 h | 100.5 hours | 31 h | 2.9 hours | 6.3 h | 430 h |  |  |  | 
B2 |  | 1600 nM | 3.4 µM |  |  | not distinguishable from the parent enzyme | 109 days | 220 h |  | 47 h | 38 hours | 15 h | 3000 h | 2 | 0.9926 | 1.93 | 144 hours
B3 | 1.44 |  |  | 0.99 | 1.08 |  |  |  |  |  |  |  |  |  |  |  | 

Source: patent publication US8030017B2, “Thermostable luciferases and methods of production” (Promega Corporation, priority 1997, dated 2011)
